Assays:
[1] = tested on: leukocyte-type 12-LO in MCF-7 cells; assay: 12-LO protein and mRNA expression in MCF-7 cells; conditions: EGF 50 ng/ml, 24 hours
[2] = tested on: VEGF protein in MCF-7 cells; assay: VEGF protein expression in breast cancer cells (immunoblot); format: cell-based, human; conditions: MCF-7, 24 hours
Experimental: FIG. 8 illustrates the dose-dependent effect of platelet-derived growth factor (PDGF) on vascular endothelial growth factor (VEGF) protein (42 kD) expression in MCF-7 breast cancer cells. Nearly confluent MCF-7 cells were serum starved for 24 hours by placing in DME medium+0.4% FCS and 0.2% BSA. This medium was then freshly replaced and the cells incubated for another 24 hours with PDGF. At the end of the incubation, the cell monolayers were washed with ice-cold PBS, scraped into PBS and pelleted by centrifugation. The cell pellets were then lysed and equal amounts of protein (50 μg) subjected to electrophoresis and immunoblotting to detect VEGF using a specific antibody from Santa Cruz Biotechnology. Detection was by a chemiluminiscent technique.
FIG. 9 illustrates the effect of epidermal growth factor (EGF) and the 12-lipoxygenase product 12-HETE on VEGF protein expression in the MCF-7 breast cancer cell line MCF-7. MCF-7 cells were treated with EGF and 12-HETE for 24 hours and VEGF protein identified as described in the legend to FIG. 8.

[3] = tested on: 12-LO activity in MCF-7 cells; assay: 12-HETE formation in MCF-7 cells; conditions: four hours, basal 257±10 pg/10^6 cells

B1: EGF: Epidermal Growth Factor (protein, UniProt P01133 23-1207, looked up)
Pro-epidermal growth factor: PQHWSCPEGTLAGNGNSTCVGPAPFLIFSHGNSIFRIDTEGTNYEQLVVDAGVSVIMDFHYNEKRIYWVDLERQLLQRVFLNGSRQERVCNIEKNVSGMAINWINEEVIWSNQQEGIITVTDMKGNNSHILLSALKYPANVAVDPVERFIFWSSEVAGSLYRADLDGVGVKALLETSEKITAVSLDVLDKRLFWIQYNREGSNSLICSCDYDGGSVHISKHPTQHNLFAMSLFGDRIFYSTWKMKTIWIANKHTGKDMVRINLHSSFVPLGELKVVHPLAQPKAEDDTWEPEQKLCKLRKGNCSSTVCGQDLQSHLCMCAEGYALSRDRKYCEDVNECAFWNHGCTLGCKNTPGSYYCTCPVGFVLLPDGKRCHQLVSCPRNVSECSHDCVLTSEGPLCFCPEGSVLERDGKTCSGCSSPDNGGCSQLCVPLSPVSWECDCFPGYDLQLDEKSCAASGPQPFLLFANSQDIRHMHFDGTDYGTLLSQQMGMVYALDHDPVENKIYFAHTALKWIERANMDGSQRERLIEEGVDVPEGLAVDWIGRRFYWTDRGKSLIGRSDLNGKRSKIITKENISQPRGIAVHPMAKRLFWTDTGINPRIESSSLQGLGRLVIASSDLIWPSGITIDFLTDKLYWCDAKQSVIEMANLDGSKRRRLTQNDVGHPFAVAVFEDYVWFSDWAMPSVMRVNKRTGKDRVRLQGSMLKPSSLVVVHPLAKPGADPCLYQNGGCEHICKKRLGTAWCSCREGFMKASDGKTCLALDGHQLLAGGEVDLKNQVTPLDILSKTRVSEDNITESQHMLVAEIMVSDQDDCAPVGCSMYARCISEGEDATCQCLKGFAGDGKLCSDIDECEMGVPVCPPASSKCINTEGGYVCRCSEGYQGDGIHCLDIDECQLGEHSCGENASCTNTEGGYTCMCAGRLSEPGLICPDSTPPPHLREDDHHYSVRNSDSECPLSHDGYCLHDGVCMYIEALDKYACNCVVGYIGERCQYRDLKWWELRHAGHGQQQKVIVVAVCVVVLVMLLLLSLWGAHYYRTQKLLSKNPKNPYEESSRDVRSRRPADTEDGMSSCPQPWFVVIKEHQDLKNGGQPVAGEDGQAADGSMQPTSWRQEPQLCGMGTEQGCWIPVSSDKGSCPQVMERSFHMPSYGTQTLEGGVEKPHSLLSANPLWQQRALDPPHQMELTQ
modifications: Pro-epidermal growth factor
**Q.** How did the “levels of 12-LO protein (72 kD) and 12-LO mRNA” value [1] turn out when B1 was run?
**A.** marked increase

**Q.** What about the VEGF protein expression [2] of the same molecule?
**A.** induced

**Q.** And the “formation of 12-HETE” value ([3]; serum-starved MCF-7, EGF 50 ng/ml)?
**A.** 462 ± 15 pg

**Q.** What about the “formation of 12-HETE” value ([3]; serum-starved MCF-7, EGF 100 ng/ml) of the same molecule?
**A.** 593 ± 46 pg

Source: patent US6893829B2, “Human leukocyte 12-lipoxygenase and its role in the pathogenesis of disease states” (City of Hope, priority 1992, dated 2005)
